The target in assay [1] is T1, IL-33 protein without any mutation (WT) (human, UniProt O95760 112-270).
T1 construct: Control of the alanine scan (four runs WT-1 to WT-4); also called WT-1; WT-2
T1 sequence: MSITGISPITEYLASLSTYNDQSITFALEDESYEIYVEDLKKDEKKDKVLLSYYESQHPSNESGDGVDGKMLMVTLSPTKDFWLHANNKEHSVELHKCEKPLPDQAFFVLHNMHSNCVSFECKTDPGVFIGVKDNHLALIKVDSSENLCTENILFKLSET
Briefly: ELISA as Example 9; row WT-1, the reference itself. As to the method: (§1) SA protein was diluted to 2 μg/mL to coat ELISA plate at 100 μL/well overnight at 4° C. The plate was washed with PBST (PBS containing 0.05% Tween20) for 3 times, and blocked with 2% BSA prepared in PBS at 200 μL/well, at room temperature for 2 h. After the plate was washed twice with PBST, IL-33-his-biotin protein was diluted to 1 μg/mL with 1% BSA prepared in PBST, and was added to ELISA plate at 100 μL/well. The plate was incubated at room temperature for 1 h, and each monoclonal antibody was diluted with 1% BSA prepared in PBST in a 3-fold gradient. The highest concentration of antibody was 10 μg/mL, and the antibody was diluted for 12 gradients. Each diluted monoclonal antibody was added to ELISA wells with 100 μL/well, and the plate was incubated at room temperature for 1 h. Each sample was added to duplicate wells in parallel. The plate was washed with PBST for 3 times, and HRP-anti human IgG Fc secondary antibody prepared with PBST was diluted at an appropriate ratio, and was added to ELISA wells at 100 μL/well. […] Each reaction solution was shaken uniformly and OD450 nm was read on a microplate reader. The data was analyzed and EC₅₀ was calculated.
(§2) Subsequently, according to the experimental method of Example 9, the affinity of the above mutant proteins to 874F7-Hu1 was determined, and IL-33 proteins (WT-1, WT-2, WT-3, and WT-4) without any mutation were set as controls.
(In general: In an ELISA, binding on a coated surface is turned into a signal by an enzyme label.)

The target in assay [2] is T2, IL-33 mutant protein E55A (human, UniProt O95760 112-270).
T2 construct: Prokaryotic expression
T2 chain: T1 sequence with E55A
Briefly: ELISA as Example 9; row E55A. The procedure: as §1, §2

The target in assay [3] is T3, IL-33 mutant protein K70A (human, UniProt O95760 112-270).
T3 construct: Prokaryotic expression
T3 chain: T1 sequence with K70A
Kind of assay: ELISA as Example 9; row K70A against WT-3. As to the method: as §1, §2

Assay [4] deals with T4, IL-33 mutant protein N61A (human, UniProt O95760 112-270).
T4 chain: T1 sequence with N61A
Briefly: ELISA as Example 9; row N61A. The procedure: as §1, §2

Assay [5] addresses T5, IL-33 mutant protein E44A (human, UniProt O95760 112-270).
T5 construct: Prokaryotic expression
T5 chain: T1 sequence with E44A
Briefly: ELISA as Example 9; row E44A against WT-1. As to the method:
as §1, §2

The target in assay [6] is T1, IL-33 protein without any mutation (WT). Kind of assay: ELISA as Example 9; row WT-4. The procedure: as §1, §2
Assay [7] deals with T6, IL-33 mutant protein D65A (human, UniProt O95760 112-270).
T6 construct: Prokaryotic expression
T6 chain: T1 sequence with D65A
Briefly: ELISA as Example 9; row D65A against WT-3. As to the method:
as §1, §2

The target of assay [8] is T7, IL-33 mutant protein Y53A (human, UniProt O95760 112-270).
T7 construct: Prokaryotic expression
T7 chain: T1 sequence with Y53A
Briefly: ELISA as Example 9; row Y53A against WT-2. The procedure: as §1, §2

Assay [9] deals with T1, IL-33 protein without any mutation (WT). Kind of assay: ELISA as Example 9; row WT-2. The procedure: as §1, §2
The target in assay [10] is T8, IL-33 mutant protein P59A (human, UniProt O95760 112-270).
T8 construct: Prokaryotic expression
T8 chain: T1 sequence with P59A
Kind of assay: ELISA as Example 9; row P59A against WT-1. As to the method: as §1, §2

For assay [11], the target named is T1, IL-33 protein without any mutation (WT). Briefly: ELISA as Example 9; row WT-4, the reference itself. As to the method: as §1, §2

Substitutions are numbered along the chain they refer to.

B1: 874F7-Hu1 (antibody, human IgG4 S228P, kappa)
heavy: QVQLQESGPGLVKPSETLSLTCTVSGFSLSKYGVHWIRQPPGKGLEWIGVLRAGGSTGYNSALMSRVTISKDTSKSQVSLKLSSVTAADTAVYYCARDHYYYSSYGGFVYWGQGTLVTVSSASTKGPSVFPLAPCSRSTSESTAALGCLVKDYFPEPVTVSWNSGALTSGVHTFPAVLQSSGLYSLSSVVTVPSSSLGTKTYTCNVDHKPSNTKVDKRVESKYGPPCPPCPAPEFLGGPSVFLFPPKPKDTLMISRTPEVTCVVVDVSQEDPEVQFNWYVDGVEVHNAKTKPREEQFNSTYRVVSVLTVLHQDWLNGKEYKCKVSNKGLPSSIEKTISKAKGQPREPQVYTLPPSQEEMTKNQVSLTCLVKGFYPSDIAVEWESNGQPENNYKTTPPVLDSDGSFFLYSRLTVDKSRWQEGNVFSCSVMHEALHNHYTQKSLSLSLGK
light: DIQMTQSPSSVSASVGDRVTITCLASQTIGAWLAWYQQKPGKSPKLLIYAATRLADGVPSRFSGSGSGTDFTLTISSLQPEDFATYYCQQLDSSPYTFGQGTKVEIKRTVAAPSVFIFPPSDEQLKSGTASVVCLLNNFYPREAKVQWKVDNALQSGNSQESVTEQDSKDSTYSLSSTLTLSKADYEKHKVYACEVTHQGLSSPVTKSFNRGEC
notes: also called 874F7-Hul; humanized antibody 874F7-Hu1
Usually EC50 stands for the concentration that produces a half-maximal response. Low readings indicate higher potency in that assay, high ones lower potency in that assay. B1: the Affinity decline ratio came to 1 fold in assay [1]; 0.6 fold in assay [3]; 0.6 fold in [5]; 192 fold in assay [7]; 3.3 fold in assay [8]; 0.5 fold in assay [10]. Moreover, in [11], the Affinity decline ratio came to 1 fold. Further, the EC50 is 0.33 nM in assay [2], 0.15 nM in [4], 0.12 nM in assay [6] and 0.13 nM in assay [9].
